First the molecules themselves.
B1: target 2 MT 5'PFS CAG 3'PFS AUA (mixed)
RNA 1: CACCCGUGCAAAAUUGCAGGGGUCUAAAACCUUCUCCAAAUUGUUUCAUCCU
RNA 2: GGGAAUGGAUCCACAUCUACGAAUUCCAGAGGAUGAAACAAUUUGGAGAAGAUAAGAUCGGAAGAGCACACGU
B2: target 2 MT 5'PFS ACU 3'PFS ACU (mixed)
RNA 1: B1 RNA 1
RNA 2: B1 RNA 2 with C27A, A28C, G29U, U53C, A54U
B3: target 2 MT 5'PFS AGC 3'PFS CCG (mixed)
RNA 1: B1 RNA 1
RNA 2: B1 RNA 2 with C27A, A28G, G29C, A52C, U53C, A54G
B4: target 2 MT 5'PFS GCG 3'PFS UCA (mixed)
RNA 1: B1 RNA 1
RNA 2: B1 RNA 2 with C27G, A28C, A52U, U53C
B5: target 2 MT 5'PFS GCG 3'PFS UCG (mixed)
RNA 1: B1 RNA 1
RNA 2: B1 RNA 2 with C27G, A28C, A52U, U53C, A54G
B6: target 2 MT 5'PFS GAA 3'PFS AGC (mixed)
RNA 1: B1 RNA 1
RNA 2: B1 RNA 2 with C27G, G29A, U53G, A54C
B7: target 2 MT 5'PFS AUG 3'PFS CAU (mixed)
RNA 1: B1 RNA 1
RNA 2: B1 RNA 2 with C27A, A28U, A52C, U53A, A54U
B8: target 2 MT 5'PFS ACU 3'PFS ACC (mixed)
RNA 1: B1 RNA 1
RNA 2: B1 RNA 2 with C27A, A28C, G29U, U53C, A54C
B9: target 2 MT 5'PFS AAA 3'PFS UUU (mixed)
RNA 1: B1 RNA 1
RNA 2: B1 RNA 2 with C27A, G29A, A52U, A54U
B10: target 2 MT 5'PFS AUG 3'PFS CAA (mixed)
RNA 1: B1 RNA 1
RNA 2: B1 RNA 2 with C27A, A28U, A52C, U53A
B11: target 2 MT 5'PFS UCG 3'PFS CCG (mixed)
RNA 1: B1 RNA 1
RNA 2: B1 RNA 2 with C27U, A28C, A52C, U53C, A54G
B12: target 2 MT 5'PFS GUA 3'PFS AUC (mixed)
RNA 1: B1 RNA 1
RNA 2: B1 RNA 2 with C27G, A28U, G29A, A54C
B13: target 2 MT 5'PFS GAA 3'PFS AGU (mixed)
RNA 1: B1 RNA 1
RNA 2: B1 RNA 2 with C27G, G29A, U53G, A54U
B14: target 2 MT 5'PFS GCG 3'PFS UCC (mixed)
RNA 1: B1 RNA 1
RNA 2: B1 RNA 2 with C27G, A28C, A52U, U53C, A54C
B15: target 2 MT 5'PFS AUU 3'PFS CGU (mixed)
RNA 1: B1 RNA 1
RNA 2: B1 RNA 2 with C27A, A28U, G29U, A52C, U53G, A54U
B16: target 2 MT 5'PFS AAA 3'PFS UUA (mixed)
RNA 1: B1 RNA 1
RNA 2: B1 RNA 2 with C27A, G29A, A52U
B17: target 2 MT 5'PFS CAG 3'PFS AUC (mixed)
RNA 1: B1 RNA 1
RNA 2: B1 RNA 2 with A54C
B18: target 2 MT 5'PFS AUU 3'PFS UCG (mixed)
RNA 1: B1 RNA 1
RNA 2: B1 RNA 2 with C27A, A28U, G29U, A52U, U53C, A54G
B19: target 2 MT 5'PFS CUG 3'PFS UGC (mixed)
RNA 1: B1 RNA 1
RNA 2: B1 RNA 2 with A28U, A52U, U53G, A54C
B20: target 2 MT 5'PFS CCG 3'PFS CCC (mixed)
RNA 1: B1 RNA 1
RNA 2: B1 RNA 2 with A28C, A52C, U53C, A54C
B21: target 2 MT 5'PFS GUA 3'PFS AUU (mixed)
RNA 1: B1 RNA 1
RNA 2: B1 RNA 2 with C27G, A28U, G29A, A54U
B22: target 2 MT 5'PFS ACU 3'PFS ACA (mixed)
RNA 1: B1 RNA 1
RNA 2: B1 RNA 2 with C27A, A28C, G29U, U53C
B23: target 2 MT 5'PFS ACG 3'PFS CCA (mixed)
RNA 1: B1 RNA 1
RNA 2: B1 RNA 2 with C27A, A28C, A52C, U53C
B24: target 2 MT 5'PFS CCG 3'PFS CCU (mixed)
RNA 1: B1 RNA 1
RNA 2: B1 RNA 2 with A28C, A52C, U53C, A54U
B25: target 2 MT 5'PFS GCG 3'PFS UCU (mixed)
RNA 1: B1 RNA 1
RNA 2: B1 RNA 2 with C27G, A28C, A52U, U53C, A54U
B26: target 2 MT 5'PFS ACU 3'PFS ACG (mixed)
RNA 1: B1 RNA 1
RNA 2: B1 RNA 2 with C27A, A28C, G29U, U53C, A54G
B27: target 2 MT 5'PFS ACG 3'PFS CCG (mixed)
RNA 1: B1 RNA 1
RNA 2: B1 RNA 2 with C27A, A28C, A52C, U53C, A54G
B28: target 2 MT 5'PFS GUA 3'PFS AUG (mixed)
RNA 1: B1 RNA 1
RNA 2: B1 RNA 2 with C27G, A28U, G29A, A54G
B29: target 2 MT 5'PFS GAA 3'PFS AGG (mixed)
RNA 1: B1 RNA 1
RNA 2: B1 RNA 2 with C27G, G29A, U53G, A54G
B30: target 2 MT 5'PFS CUG 3'PFS UGU (mixed)
RNA 1: B1 RNA 1
RNA 2: B1 RNA 2 with A28U, A52U, U53G, A54U
B31: target 2 MT 5'PFS UUU 3'PFS AUG (mixed)
RNA 1: B1 RNA 1
RNA 2: B1 RNA 2 with C27U, A28U, G29U, A54G
B32: target 2 MT 5'PFS GAA 3'PFS AGA (mixed)
RNA 1: B1 RNA 1
RNA 2: B1 RNA 2 with C27G, G29A, U53G
B33: target 2 MT 5'PFS GCG 3'PFS AAG (mixed)
RNA 1: B1 RNA 1
RNA 2: B1 RNA 2 with C27G, A28C, U53A, A54G
B34: target 1 C2G,A9C (mixed)
RNA 1: CACCCGUGCAAAAAUGCAGGGGUCUAAAACUGAGCGGAUAACCUCUCUAUGG
RNA 2: GGGAAUGGAUCCACAUCUACGAAUUCGUACCAUAGAGAGGUUCUCCGCUGACCGAGAUCGGAAGAGCACACGU
B35: target 1 insC 3' of 8,insG 3' of 8 (mixed)
RNA 1: B34 RNA 1
RNA 2: GGGAAUGGAUCCACAUCUACGAAUUCGUACCAUAGAGAGGUUAUCGCCGCUCACCGAGAUCGGAAGAGCACACGU
B36: target 1 A1U,C2G (mixed)
RNA 1: B34 RNA 1
RNA 2: B34 RNA 2 with C43A, A51U

Positions count from the first letter of the chain named. Numbers in names are those of the source.

In publication PMC10786891, “Massively parallel profiling of RNA-targeting CRISPR-Cas13d” one finds Kd data, which are given here for 36 molecules.

The target in this data set is T1, EsCas13d, nuclease-dead (Eubacterium siraeum, UniProt B0MS50, R295A;H300A;R849A;H854A).
T1 sequence: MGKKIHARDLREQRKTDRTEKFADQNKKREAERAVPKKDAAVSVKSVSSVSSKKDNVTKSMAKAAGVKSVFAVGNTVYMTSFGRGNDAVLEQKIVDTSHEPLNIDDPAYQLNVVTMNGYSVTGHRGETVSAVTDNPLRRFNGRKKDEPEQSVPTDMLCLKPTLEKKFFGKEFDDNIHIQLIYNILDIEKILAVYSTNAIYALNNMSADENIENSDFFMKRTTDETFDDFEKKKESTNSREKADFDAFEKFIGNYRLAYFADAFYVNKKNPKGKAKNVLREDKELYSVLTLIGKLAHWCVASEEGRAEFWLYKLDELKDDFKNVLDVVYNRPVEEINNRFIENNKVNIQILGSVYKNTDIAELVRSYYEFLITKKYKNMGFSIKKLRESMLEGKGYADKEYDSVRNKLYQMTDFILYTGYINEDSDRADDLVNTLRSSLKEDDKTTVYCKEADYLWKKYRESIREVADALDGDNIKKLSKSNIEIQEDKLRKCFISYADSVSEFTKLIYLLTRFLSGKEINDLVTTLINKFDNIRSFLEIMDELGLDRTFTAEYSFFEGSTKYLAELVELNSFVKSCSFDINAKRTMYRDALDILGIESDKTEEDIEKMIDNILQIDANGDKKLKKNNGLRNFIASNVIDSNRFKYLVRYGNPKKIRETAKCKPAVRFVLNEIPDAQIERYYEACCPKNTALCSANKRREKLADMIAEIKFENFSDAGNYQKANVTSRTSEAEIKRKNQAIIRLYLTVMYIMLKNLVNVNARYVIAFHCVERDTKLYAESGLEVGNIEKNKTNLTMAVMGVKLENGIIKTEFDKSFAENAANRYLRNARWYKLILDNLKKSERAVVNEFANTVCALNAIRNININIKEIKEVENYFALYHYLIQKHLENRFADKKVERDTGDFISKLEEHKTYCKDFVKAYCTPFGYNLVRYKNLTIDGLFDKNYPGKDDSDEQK
In words: crRNA (strand 1, pre-loaded); Mg2+; 40 mM Tris-HCl pH 7.5, 150 mM NaCl, 6 mM MgCl2, 1 mM DTT, 0.1% Tween-20, 0.2 mg/ml BSA; 25 C; 10 min per concentration, then washed. The note with it: tags: His6-TwinStrep-SUMO cleaved; N-terminal SNAP kept (SNAP-Surface 488); label: 3' end held by stalled T7 RNA polymerase.
What is called Kd is a measure of binding affinity in units of concentration. On to B1, for which binding was put at a Kd of 4.5 ± 1 nM. To B2 belongs 7.3 ± 1.3 nM. B3 displayed a Kd of 9.3 ± 1 nM. To B4 belongs about 37 nM. To B5 belongs 20 ± 4 nM; to B6, 6.3 ± 1.1 nM; to B7, 7.6 ± 0.8 nM. To B8 belongs 9.3 ± 2.2 nM; to B9, 23 ± 10 nM. For B10, binding was characterised by a dissociation constant (Kd) of 9 ± 1.4 nM. Against the preceding molecule, the Kd is about 2.6-fold lower. To B11 belongs 90 ± 40 nM; to B12, 8.9 ± 0.8 nM; to B13, 15.3 ± 2.4 nM.

Regarding B14, the affinity, expressed as Kd, was 30 ± 5 nM. This Kd is about 2-fold higher than that of the molecule before.

The molecule B15 registered a Kd of 6.9 ± 0.9 nM. To B16 belongs 5.6 ± 1.5 nM; to B17, 7 ± 1.7 nM.

Consider B18, for which the Kd came out at 7.8 ± 0.7 nM. To B19 belongs 2.56 ± 0.25 nM. To B20 belongs 3.1 ± 0.5 nM; to B21, 6.8 ± 0.5 nM; to B22, 4.2 ± 0.7 nM. To B23 belongs 19 ± 7 nM. With B24, the Kd stood at 8.4 ± 1.6 nM.

With B25, the Kd stood at 31 ± 5 nM. To B26 belongs 9.5 ± 2.5 nM; to B27, 9.9 ± 1.5 nM; to B28, 7.8 ± 0.5 nM. In turn, B29 yielded a Kd of 6.9 ± 0.7 nM. Consider B30, for which the dissociation constant (Kd) is 3.72 ± 0.32 nM.

In turn, B31 had a Kd of 7.5 ± 0.9 nM.

B32 gave a Kd of 5.4 ± 0.9 nM. To B33 belongs 10.2 ± 1.5 nM; to B34, 15 ± 1.2 nM. To B35 belongs 10.6 ± 0.5 nM; to B36, 9.2 ± 0.8 nM.
